Target: T1, integrin αvβ3 on β3-CHO cells (UniProt A0A9J7JSN3+P05106)
T1 construct: expressed in transfected cells; host or cells: CHO
T1 sequence (P05106 27-788): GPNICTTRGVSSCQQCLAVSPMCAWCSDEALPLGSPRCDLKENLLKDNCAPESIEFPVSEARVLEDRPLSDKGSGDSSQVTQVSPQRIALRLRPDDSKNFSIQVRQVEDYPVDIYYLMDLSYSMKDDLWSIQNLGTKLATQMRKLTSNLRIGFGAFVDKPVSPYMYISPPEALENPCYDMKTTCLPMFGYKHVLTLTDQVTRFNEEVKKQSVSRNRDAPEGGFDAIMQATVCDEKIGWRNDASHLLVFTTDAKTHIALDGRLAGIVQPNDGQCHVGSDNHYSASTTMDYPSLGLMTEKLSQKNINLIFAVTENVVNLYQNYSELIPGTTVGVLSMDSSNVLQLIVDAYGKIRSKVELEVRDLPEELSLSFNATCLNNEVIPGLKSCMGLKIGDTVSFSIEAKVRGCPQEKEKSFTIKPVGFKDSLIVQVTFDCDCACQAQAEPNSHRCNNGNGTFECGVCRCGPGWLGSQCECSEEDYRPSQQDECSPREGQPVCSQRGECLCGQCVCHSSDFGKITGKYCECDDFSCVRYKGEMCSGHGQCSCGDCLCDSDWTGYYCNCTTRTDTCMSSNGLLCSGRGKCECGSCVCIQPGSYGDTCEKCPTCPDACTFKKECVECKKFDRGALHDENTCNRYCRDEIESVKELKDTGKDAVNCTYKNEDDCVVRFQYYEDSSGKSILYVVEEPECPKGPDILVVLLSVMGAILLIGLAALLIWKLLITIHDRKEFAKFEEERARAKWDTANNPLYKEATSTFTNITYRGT
T1 sequence (A0A9J7JSN3 31-1043): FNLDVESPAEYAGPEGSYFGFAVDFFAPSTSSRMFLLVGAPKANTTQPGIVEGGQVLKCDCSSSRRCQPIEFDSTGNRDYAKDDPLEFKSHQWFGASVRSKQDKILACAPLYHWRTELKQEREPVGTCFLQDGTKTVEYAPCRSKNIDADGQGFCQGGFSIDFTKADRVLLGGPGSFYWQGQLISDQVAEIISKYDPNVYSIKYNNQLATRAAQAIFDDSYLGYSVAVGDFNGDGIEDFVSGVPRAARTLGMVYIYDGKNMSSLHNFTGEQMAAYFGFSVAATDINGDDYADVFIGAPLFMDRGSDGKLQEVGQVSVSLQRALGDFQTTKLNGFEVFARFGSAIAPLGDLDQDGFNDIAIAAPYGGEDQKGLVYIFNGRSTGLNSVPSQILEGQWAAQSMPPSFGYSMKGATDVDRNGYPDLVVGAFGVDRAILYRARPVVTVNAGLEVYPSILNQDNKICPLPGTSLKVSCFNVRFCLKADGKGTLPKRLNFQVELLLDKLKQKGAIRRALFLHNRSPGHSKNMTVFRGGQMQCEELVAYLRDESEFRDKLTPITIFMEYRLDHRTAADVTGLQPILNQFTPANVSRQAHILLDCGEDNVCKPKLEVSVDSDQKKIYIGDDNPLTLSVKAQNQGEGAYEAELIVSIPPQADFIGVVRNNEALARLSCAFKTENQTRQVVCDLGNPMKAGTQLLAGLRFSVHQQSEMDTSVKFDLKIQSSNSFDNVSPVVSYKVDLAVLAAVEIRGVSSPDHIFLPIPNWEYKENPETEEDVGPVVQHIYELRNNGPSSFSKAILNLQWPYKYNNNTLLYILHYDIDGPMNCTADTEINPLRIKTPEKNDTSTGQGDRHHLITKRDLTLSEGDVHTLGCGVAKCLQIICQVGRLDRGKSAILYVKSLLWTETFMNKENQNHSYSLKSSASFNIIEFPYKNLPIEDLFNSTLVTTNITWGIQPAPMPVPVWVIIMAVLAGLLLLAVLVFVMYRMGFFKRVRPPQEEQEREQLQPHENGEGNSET
Assay: Adhesion of cells expressing recombinant αvβ3 (β3-CHO, β3-745) to immobilized sPLA2-IIA
Format: cell-based, human
Conditions: compared with mock-transfected cells
Source text: FIG. 1. sPLA2-IIA binding to integrin αvβ3. a) Cell adhesion to sPLA2-IIA in an αvβ3- and proteoglycans-dependent manner. Wells of a 96-well microtiter plate were coated with sPLA2-IIA at indicated coating concentrations. Remaining protein-binding sites were blocked with BSA. CHO cells expressing recombinant αvβ3 (β3-CHO), mock-transfected CHO cells, proteoglycans-deficient CHO cell variant (pgs745), expressing recombinant αvβ3 (β3-745), and mock-transfected pgs745 cells (10^5 cells per well in 100 μl Tyrodes-HEPES with 1 mM MgCl2) were added to the wells. After incubating for 1 h at 37° C., unbound cells were removed by gentle rinsing and bound cells were quantified using endogenous phosphatase activity (Prater, C. A. et al., J. Cell Biol., 112:1031-1040 (1991)). Data is shown as means+/−SEM of triplicate experiments. b) Effect of anti-(33 mAb 7E3 on adhesion of β3-CHO cells to immobilized sPLA2-IIA. […] Bound FITC (FL1) and PE (FL2) were quantified in flow cytometry. […] Bound αvβ3 was detected using peroxidase-conjugated anti-6His antibody. Bound peroxidase activity was measured. […]

B1: wt sPLA2-IIA: Secretory phospholipase A2 group IIA, wild type, recombinant from bacteria BL21, refolded (protein)
chain: NLVNFHRMIKLTTGKEAALSYGFYGCHCGVGGRGSPKDATDRCCVTHDCCYKRLEKRGCGTKFLSYKFSNSGSRITCAKQDSCRSQLCECDKAAATCFARNKTTYNKKYQYYSNKHCRGSTPRC
modifications: left off: small tags and cut ends
Question: With B1 as the molecule, how does the “adhesion of β3-CHO and β3-745 cells to immobilized sPLA2-IIA” value read?
Answer: The value was “much higher level than mock-transfected CHO or 745 cells”.
